This note sets out measurements from the DeepSol protein solubility set.

A short description of this series: soluble on expression in E. coli; label from the status in PepcDB or PDB records.
With “GPGSMSFKPTISVHATPQELSAAGCRKIVEIIETSGSQQWPLSIALAGGSTPKMTYARLHDEHLNLLREKRALRFFMGDERMVPADSTDSNYNMAREVLLHDIPDDLVFPFDTSAVTPSAEATSADAMRVAEAYGKQLASLLPLKSVGEAGAKVPVFDVVLLGLGSDGHTASIFPGSQAEKETDGKVVVSVGFPSETMKPKVWRVTLSPATIMQARNVIVLATGAEKKWVVDGILADTAHKAPVARFLRGCEGNVSFLLDKEIAENLAKF”, the “soluble on expression in E. coli” value is reported as “soluble”.

Regarding “GPGSMSLVESQKGMTDLIPCNEQCGGDYGNYSFGQGDLDVTVTVPLPENTTKKMLLVQITASKLIVGLRGKPPIISGDFYRPVKASECTWCIEDKRLLVINMVKTNSQHEEWWPCVVVGERQIDMKTLKPPSKHVSELDESAQATIAKMMFDQRQKMQNLPTSEEMRLQEMMRAAQGAK”, the “soluble on expression in E. coli” value is on record as “soluble”.

Regarding “GPGSMSSFAPNVKICEDISHISSAARDIILAAIDARVDKSAPVVLALSGGSTPKRLYEELHEKDLTLLQQHAVQFILGDERLVATDDEQSNFSMATKALLRDVPISDVIAIEPSAALATSKDEKGGVDGAWAVAQDYEKKLRNRLPCTQVNGTDMSVPIVDIVLLGFGADGHTASIFPDSVAATDESHVVSVSFPSPTMNPKVWRVTLSKTVIQHAKHVVVLACGKDKNWVVHGVLAEAPTGPLPVSRFLRECRGSVTMLLDAGSGEGLSA”, the “soluble on expression in E. coli” value is “soluble”.

For “GPGSMSSKAALLAVLAGSGQEHLVDDYDALSPSEQTTLATQILSYTNAQWKHMNVILRDSLRLLNLSNAAAGTGGGDAATAAPNITPPPADTIINVPALLAKRPSELAAIRAAGMRVVASGEGAVLLMAGGSGTRLGMTIPKGMVECDKLVSGRSLFAYHCQRIRKMERMAAAAAASLSQPSAVAAAGAAPVPPGAGRGTMPLLVTTSDQNDTATRQFFHDHDFFGLLPNQVFFSRQSSLPCYDEATGRVLMQARGSICLAPGGNAGVYESLAKASATTSGSQSVLAQIEARGVRYVQIVSVDNILARVGDPYFFGVAASYQAEVVLKTVPKVSAAEKVGVVAQVDGEWAVVEYTEIGDRRSAETDPATGELAFNCGSIASHCCSLDFLALAATYMETSTFYHAARKTIPTINGPAPAIKLEAFIFDVFRYAKDVPSRAERAKKAPLPDALQILQVDRSMEFAPIKNADGAAADTPTTAAQLLLDLHTRWVTEAIEAAPGTYAVASTSTSAMYTALERATALQRLRDGQCCWEISPLVSYEGEGLAAYVGQLIHRSATGSGVLGLEEATAGTANM”, the “soluble on expression in E. coli” value is on record as “soluble”.

With “GPGSMSSLTEGARASHTSSKEAGYYRLQSPKHINIDPCVYEIRTMRGSGPGGQGTNSSSNKVELRADMELLSEFFDEELLAALRRHEAGGALTNDGTTIVVSCHEHRSALQNKEGCLRKLQTLLHKASWVPPAEAGLVERPSFIVTEQKVRRRKKSNMNRMTRSARSGSW”, the “soluble on expression in E. coli” value is listed as “soluble”.

Turning to “GPGSMSTMAASRSDTPAPVHEMSMERLRREYVSLKSTSYSLTVEESHLIRKIETLREESVRAVLNAEMKEEQVSNQLFRRLDGAEREVQRYQALLKEEESEAESLSGRIKEMRSQQTEVENALEERQEYLLMNLQRKLLDMARKKTAVEQELMAERQKYLDVLVTRLNMLRGRGVGSSTESSVTIHSQPSPAEANTVPVAKHLDVPLPTTAAPHISTPLLRTGVPLGDNHGMLPAEKPLREDAHTDAGLPLPFVLSPAISAQKKPKDGVIVNASRGNTSSTSGRLSASTTPLSADLTPRSSHSSETHHAVVALERKLNQLLLEQAAAMQRTSATEKQCAVLTAKLHAVQEATFLDRARASKMKEELEKARARLSEVKARDRSGIPFSPLDDTSVMSGSNASFDNSSPLVLSSLSLRERTRELLSSVPQPNANERPC”, the “soluble on expression in E. coli” value is “not soluble”.

In the case of “GPGSMTPTRAQLAAFVDHTLLKPEATAADVAALVTEAAELGVYAVCVSPPMVPAAVQAGAGVRVASVAGFPSGKHVSAVKAHEAALAVASGAAEIDMVIDVGAALAGDLDGVRADIAAVRGAVGGAVLKVIVESSALLALADEHTLVRVCRAAEDAGADFVKTSTGFHPSGGASVRAVALMAEAVGGRLGVKASGGIRTAADALAMLDAGATRLGLSGTRAVLDGLG”, the “soluble on expression in E. coli” value is “soluble”.

“GPGSMTRELHRLYVTEPAPPPSLYILTGAGTKAFCAGGDVIGLTTNNPPGCGREFFYWEYQVDYKASIIPAGQVCLWDGYVLGGGAGLSIGSAYRVASEKACFAMPEVAIGMFPDVGASWFLPRLSVPGLGLYMGLTGHRLRGADLVHLGLATHFVPSAKMGELEQALVSMSDAGDVEAVLDKYTTPTTQLPPCTIAHSISSLASHFDITADLTISSILDACREHAQTDPLAKAAADLMPSFSPTAMTLALELLKRGA”: the “soluble on expression in E. coli” value is reported as “not soluble”.

As for “GPGSMTSPKIKAVFVDMDGTLFNSDHLISPRTAKVIHALEERGVAFVVATGRPFPDVFGNLAQTELRPDFIITSNGARVHDAQHNILFACDMDAESVCRLFQLSPHLSEDGVVDPSVQARRILCNVNCRDRWLTNECIPEVRAAFHPSFIYERVDPMVQTAKTLEGTHSMWIRGAHADLVCVQKYVDRELSGEIRCAFALPHILDCFRKDVNKGAAMEKVCKHLRIDLRETIAFGDGMNDIRMLTAAGQGFVMANAAEMVKQAAPELPVIQSNNEEGVAWKLEELLAADAFVG”, the “soluble on expression in E. coli” value was “soluble”.

Take “GPGSMTTSASLFKKFTLENVAQIASSSHKEQKEVREELAEQYPALEAYWEEILPKKSDIFIIRCQGQVHCITLVSSQPEVLFFNHHGGPYLPHLKLLHKYPFMLTRHQVDIGGCRYVISGANVMCQGLTSAGGIVADGTEEGEVVAVYVEGKEHAVAVGTMLMSSDEIKEKNKGPCIENIHHLGDGLWMNPVLSASHISV”: the “soluble on expression in E. coli” value is given as “soluble”.

In the case of “GPGSMVIKKDVPFKYTLHQGLCERDPVLSTPLIITAGVDGNELQYRLDMQVPSHSAIEGMEVTNVEFLFTSSKCNAGKSNQHLSKCSMLVYLYMQLLDGVGRPTSPPFPISCCNTHTGKGIFSCVKLPLQVNQQCRFYLVRRSCTDSASQSAMELKGVRFTSKLYLLYRSPLNSAKVRSQMDVLTGGDLKFTADTEVMTSTGAKRSREELERFGSENSDRKGKKAKRERETATTMDRASDDEPPNLIYAFVSGGDNES”, the “soluble on expression in E. coli” value is “soluble”.

“GPGSMVKPRSQGPRRPAVKQADNKSVGDRSKTAVTEKMKPSRLVGGTTGAKKERREGKKVSTGKANKVAATSASTVVLKEGGKPSGPSHGTGTNSSRRGKRSPQAQTRRAAARVASRVIESNSRITAATNRMNTAREELALFDQVTQMPAFVADPFTAIDEHLSTAMDFLQPQTPDVGRVKRE”: the “soluble on expression in E. coli” value is reported as “soluble”.

As to “GPGSMVRCSRPAFRQVCRAWGTRVSYTHMLMAESFVKSPHARHAEFARYEGENRLVAQLAAKSGPAAAQAALLLRPYCDGIDLNCGCPQRWAMKEGIGAALLDQPERVADMVRSIRNAMPDGSTAPMIVGNGGEYSSCTSAVPPFLPCVVKMRIKDDLRRSVDFARQCEAAGVSWLTVHGRTPTCHSSTAVQFEAVKLIRENLSVPVVLNGGVTDVSTAMEAALRTGCGGLMSANGLLDNPAMFYCGASRAAMEAEMSFVTSCWGRPPRTCDPVSPPAETAAPDVFSEVFSPVRPVSFLWAPDRSNAEAVLLRYTVADMWQAAVTPREVISDFMRAAMRTDLVVPTTVQQVLRMARLYVSPAERNHLALLRSNLSVLNALQEIDVYVESGRIACE”, the “soluble on expression in E. coli” value was “not soluble”.

In the case of “GPGSSAHAPEGKRATKTELGSTSLYVRVGQLTNLRRHPDADRLYVEDMVLGDETRTIVSGLVESYAIEELEGTQCLVVCNMKPKSLMGVTSQGMVLCAKRDTEVKLIRPPAGAKPGDRILFGASYDAAIAAAAPPEPISSNKMSEVLSHLHTNADSVLCWKDEPARHPSGAAVAIADMANCPVS”, the “soluble on expression in E. coli” value is listed as “soluble”.

As for “GPGSSLMFSRPPSKLSGAPTREDLDEIIAEEVREWVAKMVGVKHNADVWSMPNFVDALRSGVLLHVLLQKMESPPVSDEDLKLPKRTTGFFVRDNVATFLTTAKSRYDLVDAQLFTVSDLVDGKNDRQVVTCLMSIARIAYSAGAIK”, the “soluble on expression in E. coli” value is on record as “not soluble”.

With “GPGYQDPKGRLYGTIGIQKRFYVSIDKIPEHVINAFVATEDRNFWHHFGIDPVAIVRAAIVNYRAGRIVQGGSTITQQLAKNLFLTRERTLERKIKEALLAIKIERTFDKKKIMELYLNQIYLGSGAYGVEAAAQVYFGKHVWELSLDEAALLAALPKAPAKYNPFYHPERALQRRNLVLKRMLEEGYITPEQYEEAVNK”, the “soluble on expression in E. coli” value is given as “soluble”.

Regarding “GPHMADLFGDDIEEIPDTDFDFEGNLALFDKAAVFEEIDTYERR”, the “soluble on expression in E. coli” value is “soluble”.
